From patent EP4541815A1 (Huahui Health Ltd., dated 2023)
Substitutions are numbered along the chain they refer to.

Tests used:
[1] = biological target: FcγRIIIa F158 on Jurkat/NFAT-luc2p/FcγRIIIa F158 cells (UniProt P08637 17-254, limits assumed); test: cell-based or functional assay
[2] = biological target: T1, FcγRIIa R131 on Jurkat/NFAT-luc2p/FcγRIIa R131 cells (UniProt P12318 34-317, limits assumed); test: cell-based or functional assay
T1 sequence (looked up): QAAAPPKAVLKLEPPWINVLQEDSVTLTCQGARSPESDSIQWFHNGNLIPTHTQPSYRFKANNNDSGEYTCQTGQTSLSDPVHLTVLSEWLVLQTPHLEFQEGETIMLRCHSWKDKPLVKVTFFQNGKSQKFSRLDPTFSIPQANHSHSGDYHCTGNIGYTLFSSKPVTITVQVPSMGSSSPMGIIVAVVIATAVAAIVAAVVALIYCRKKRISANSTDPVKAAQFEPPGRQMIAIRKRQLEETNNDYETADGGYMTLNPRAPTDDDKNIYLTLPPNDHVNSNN

[3] = biological target: Pre-S1 domain of hepatitis B virus (L protein) on recombinant HBV D genotype virus (hepatitis B virus, D genotype); test: cell-based or functional assay
[4] = biological target: T2, hFcγRIIa (H131) (recombinant, C-terminal 6xHis tag) (human, UniProt P12318 34-217); test: Biacore SPR, ratio against A14 WT
T2 construct: also called hFcyR2a H131
T2 sequence: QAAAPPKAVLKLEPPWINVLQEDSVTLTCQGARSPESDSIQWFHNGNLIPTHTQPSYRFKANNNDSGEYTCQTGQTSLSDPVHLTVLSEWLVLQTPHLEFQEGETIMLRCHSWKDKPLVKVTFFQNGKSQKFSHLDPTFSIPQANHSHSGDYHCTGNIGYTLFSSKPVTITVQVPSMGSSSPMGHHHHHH

[5] = biological target: T3, hFcγRIIa (R131) (recombinant, C-terminal 6xHis tag) (human, UniProt P12318 34-217); test: Biacore SPR, ratio against A14 WT
T3 construct: also called hFcyR2a R131
T3 sequence: T2 sequence with H134R

[6] = biological target: T4, hFcγRIIb (recombinant, C-terminal 6xHis tag) (human, UniProt P31994 43-217); test: Biacore SPR, ratio against A14 WT
T4 construct: also called hFcyR2b
T4 sequence: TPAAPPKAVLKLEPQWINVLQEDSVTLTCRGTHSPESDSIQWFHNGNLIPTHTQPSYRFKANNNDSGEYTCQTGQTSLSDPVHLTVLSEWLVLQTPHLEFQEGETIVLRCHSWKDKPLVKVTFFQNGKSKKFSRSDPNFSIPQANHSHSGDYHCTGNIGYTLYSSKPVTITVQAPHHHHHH

[7] = biological target: T5, hFcγRIIIa (V158) (recombinant, C-terminal 6xHis tag) (human, UniProt P08637 17-208); test: Biacore SPR, ratio against A14 WT
T5 construct: also called hFcyR3a V158

[8] = biological target: T6, hFcγRIIIa (F158) (recombinant, C-terminal 6xHis tag) (human, UniProt P08637 17-208); test: Biacore SPR, ratio against A14 WT
T6 construct: also called hFcyR3a F158

[9] = biological target: T7, hFcγRIa (recombinant, C-terminal 6xHis tag) (human, UniProt P12314 16-292); test: Biacore SPR, ratio against A14 WT
T7 construct: also called hFcγR1a

[10] = biological target: T2, hFcγRIIa (H131) (recombinant, …); test: Biacore SPR, antibody captured on Protein G CM5 chip, hFcγR as mobile phase, pH 7.0, 1:1 Langmuir fit
[11] = biological target: T3, hFcγRIIa (R131) (recombinant, …); test: as above
[12] = biological target: T4, hFcγRIIb (recombinant, C-terminal 6xHis …); test: as above
[13] = biological target: T5, hFcγRIIIa (V158) (recombinant, …); test: as above
[14] = biological target: T6, hFcγRIIIa (F158) (recombinant, …); test: as above
[15] = biological target: T7, hFcγRIa (recombinant, C-terminal 6xHis …); test: as above

T5 sequence (P08637 other isoform, or with tags, fused parts or gaps): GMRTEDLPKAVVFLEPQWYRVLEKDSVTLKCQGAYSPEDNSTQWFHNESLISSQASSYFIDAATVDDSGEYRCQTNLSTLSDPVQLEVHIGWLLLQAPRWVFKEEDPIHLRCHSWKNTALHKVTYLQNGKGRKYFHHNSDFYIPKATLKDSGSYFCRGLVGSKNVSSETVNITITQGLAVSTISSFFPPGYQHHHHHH
T6 sequence (P08637 other isoform, or with tags, fused parts or gaps): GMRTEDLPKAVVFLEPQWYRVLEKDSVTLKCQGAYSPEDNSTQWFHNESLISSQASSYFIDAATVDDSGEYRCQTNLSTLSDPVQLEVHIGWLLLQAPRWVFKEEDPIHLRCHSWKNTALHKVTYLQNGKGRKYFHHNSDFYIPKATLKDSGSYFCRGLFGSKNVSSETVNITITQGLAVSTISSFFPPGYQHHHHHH
T7 sequence (P12314 other isoform, or with tags, fused parts or gaps): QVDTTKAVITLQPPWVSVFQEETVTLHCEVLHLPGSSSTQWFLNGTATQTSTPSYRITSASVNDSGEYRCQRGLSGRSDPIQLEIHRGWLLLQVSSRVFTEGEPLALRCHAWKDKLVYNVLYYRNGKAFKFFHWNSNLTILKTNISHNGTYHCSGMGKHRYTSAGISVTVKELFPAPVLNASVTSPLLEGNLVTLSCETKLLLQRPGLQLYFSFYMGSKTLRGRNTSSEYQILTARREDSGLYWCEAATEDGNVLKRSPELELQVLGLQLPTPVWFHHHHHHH

B1: afuco-A14 GA LS (antibody, human IgG1, lambda)
heavy: QVQLQQSGPGLVKPSQTLSLTCAISGDSVSSNSAAWNWIRQSPSRGLEWLGRTYYRSKWYNDYAVSVKSRITINPDTSKNQFSLQLNSVTPEDTAVYYCARGTRWGMDVWGQGTLVTVSSASTKGPSVFPLAPSSKSTSGGTAALGCLVKDYFPEPVTVSWNSGALTSGVHTFPAVLQSSGLYSLSSVVTVPSSSLGTQTYICNVNHKPSNTKVDKKVEPKSCDKTHTCPPCPAPELLAGPSVFLFPPKPKDTLMISRTPEVTCVVVDVSHEDPEVKFNWYVDGVEVHNAKTKPREEQYNSTYRVVSVLTVLHQDWLNGKEYKCKVSNKALPAPIEKTISKAKGQPREPQVYTLPPSRDELTKNQVSLTCLVKGFYPSDIAVEWESNGQPENNYKTTPPVLDSDGSFFLYSKLTVDKSRWQQGNVFSCSVLHEALHSHYTQKSLSLSPGK
light: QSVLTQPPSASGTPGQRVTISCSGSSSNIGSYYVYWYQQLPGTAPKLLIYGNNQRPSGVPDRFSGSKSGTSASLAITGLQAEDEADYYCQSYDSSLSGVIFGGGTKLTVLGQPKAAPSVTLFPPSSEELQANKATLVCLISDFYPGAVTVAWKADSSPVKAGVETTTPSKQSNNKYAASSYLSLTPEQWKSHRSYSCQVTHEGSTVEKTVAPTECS
ADCC activity, fold enhancement compared to A14 [1]: 18.6 fold | ADCP activity, fold enhancement compared to A14 [2]: 4.7 fold | IC50 of inhibition of HBV infection of HepG2-hNTCP cells (HBeAg secretion) [3]: ~0.011 µg/mL | Fold (KD of A14 WT over KD of afuco-A14 GA LS) [4]: 4.63 fold | Fold (KD of A14 WT over KD of afuco-A14 GA LS) [5]: 3.83 fold | Fold (KD of A14 WT over KD of afuco-A14 GA LS) [6]: 0.76 fold | Fold (KD of A14 WT over KD of afuco-A14 GA LS) [7]: 7.89 fold | Fold (KD of A14 WT over KD of afuco-A14 GA LS) [8]: 11 fold | Fold (KD of A14 WT over KD of afuco-A14 GA LS) [9]: 0.41 fold | Kd [10]: 169 nM | Kd [11]: 204 nM | Kd [12]: 7470 nM | Kd [13]: 123 nM | Kd [14]: 588 nM | Kd [15]: 173 nM
